{"source": "paper PMC6412121", "target": "TF-TDP-43-FL (UniProt Q13148)", "sequence (Q13148 whole entry)": "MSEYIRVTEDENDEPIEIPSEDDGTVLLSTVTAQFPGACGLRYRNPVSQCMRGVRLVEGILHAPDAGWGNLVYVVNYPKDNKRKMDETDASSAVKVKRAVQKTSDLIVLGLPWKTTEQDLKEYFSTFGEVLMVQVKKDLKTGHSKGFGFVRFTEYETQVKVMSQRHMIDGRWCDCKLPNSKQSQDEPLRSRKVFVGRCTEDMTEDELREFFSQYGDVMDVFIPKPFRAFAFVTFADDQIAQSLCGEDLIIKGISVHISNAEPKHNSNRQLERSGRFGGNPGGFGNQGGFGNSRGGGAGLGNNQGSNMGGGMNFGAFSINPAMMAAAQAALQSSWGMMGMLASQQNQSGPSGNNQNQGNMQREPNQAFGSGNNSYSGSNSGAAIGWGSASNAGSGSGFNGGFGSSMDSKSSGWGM", "test": "EMSA", "conditions": "biotin-UTP incorporated in transcription; EMSA: 40 mM Tris-HCl pH 7.4, 30 mM KCl, 1 mM MgCl2, 0.01% IGEPAL CA-630, 1 mM DTT, 10 ug yeast tRNA, 10 ug BSA, 10 ng RNA, 200 ng protein in 10 ul, 25 C, 20 min", "data": [{"sequence": "GGGAGAGCAAAGUGAUGAGUAAUACUGGCUGGAGCCCCAAAGAGGCACGUGUGUGUGUUUGUGUGUGUGUGUAUAUGCUUGUCAGUGCAUGCACGUGUAUGUCUGGGAGUACAAAUGGGUGCGACUGGUUGUAGGGAACUAGCUAUGUGCCUUCUAUUAGGCCAUGACAGUCAAACUGAUAAGAUCUGAUUGC [scaRNA28]", "values": [{"measurement": "binding", "result": "binds"}]}]}
